Source: patent US20180305450A1 (AstraZeneca / MedImmune, published 2018)

What was measured:
[1] = molecular target: T1, recombinant biotinylated human PAR2 extracellular domain (residues 1-75), N-terminal AviTag, C-terminal Flag … (human, UniProt P55085 26-75, biotin on the AviTag (enzymatic biotinylation)); assay: HTRF competition with Par0067 IgG, scFv
T1 construct: also called Bio-human-PAR2 ECD; human PAR2 ECD; not shown: N-terminal AviTag (Avidity LLC); C-terminal Flag and poly Histidine tags
Procedure: (§1) 5 μl/well of the appropriate pH 4.44 nM Par0067 IgG solution was added to all wells of the relevant assay plate (pH 7.4 and pH 6.0).
(§2) Test scFv Preparation/Addition: [0172] a) For parallel single point HTS of crude un-purified bacterial lysate scFv samples at both pH 7.4 and pH 6.0 samples were first pre-diluted to 40% of their neat concentration using either pH 7.4 or pH 6.0 assay buffer as appropriate. Subsequently 5 μl of 40% pre-diluted sample was then transferred into the appropriate assay (pH 7.4 or pH 6.0) in order to give a final assay sample concentration of 10.0% (in the 20 μl final assay volume). The parent Par0067 scFv was included in all HTS experiments as a control as were specific pH dependent antibodies as those became available (for benchmarking). […] Duplicate 11 point 1:3 serial dilutions then were prepared on 384 well polypropylene Greiner plates in each of the two assay buffers (pH 7.4 & 6.0). 5 μl per well of each serial dilution was transferred from the relevant pH scFv dilution plate to the corresponding assay plate (pH 7.4 and pH 6.0). 5 μl of the appropriate pH assay buffer was added to the total and non-specific wells. The parent Par0067 purified scFv was included in all multipoint dose response IC₅₀ experiments as a control as were specific pH dependent purified scFv as those became available (for benchmarking).
(§3) For multipoint dose response curves % Specific Binding values were plotted versus test purified antibody concentration (scFv or IgG). IC₅₀ values were determined via a sigmoidal dose response inhibition variable slope curve fit (4 parameter logistic equation) using Graphpad Prism Software.

[2] = molecular target: T1, recombinant biotinylated human PAR2 …; assay: HTRF competition with Par0067 IgG, pH 6.0, scFv
Procedure: as §1, §2, §3

[3] = molecular target: T1, recombinant biotinylated human PAR2 …; assay: HTRF competition with Par0067 IgG, pH 7.4, scFv
Procedure: as §1, §2, §3

T1 sequence (P55085 26-75): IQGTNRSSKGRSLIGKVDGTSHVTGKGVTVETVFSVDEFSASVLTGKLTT

Binder	Fold IC50 (pH 6.0 v pH 7.4) [1]	Fold IC50 pH 7.4 (Variant v Par0067) [1]	IC50 [2]	IC50 [3]
PaB670091 scFv (scFv, V domains shown, purified scFv; also called ZZ1ODR-G02) VH: EVQLLESGGGLVQPGGSLRLSCAASGFTFSSYAMNWVRQAPGKGLEWVSTISHSGHLIHHHHSVKGRFTISRDNSKNTLYLQMNSLRAEDTAVYYCARINNDPMDVWGQGTLVTVSS VL: SIELTQPPSVSVSPGQTASITCSGDNLGKKYVQWYQQKPGQSPVLVIYDDSNRPSGIPERFSGSNSGNTATLTISGTQAMDEADYYCQTWDGNPTTGETNVFGGGTKLTVL	3.9 fold	7.6 fold	98.9 nM	25.2 nM
PaB670092 scFv (scFv, V domains shown, purified scFv; also called ZZ1ODR-G11) VH: EVQLLESGGGLVQPGGSLRLSCAASGFTFSSYAMNWVRQAPGKGLEWVSTISYHGSHISYHDSHHGRFTISRDNSKNTLYLQMNSLRAEDTAVYYCARINNDPMDVWGQGTLVTVSS VL: SIELTQPPSVSVSPGQTASITCSGDNLGKKYVQWYQQKPGQSPVLVIYDDSNRPSGIPERFSGSNSGNTATLTISGTQAMDEADYYCQTWDGNPTTGETNVFGGGTKLTVL	4.7 fold	12.5 fold	194 nM	41.1 nM
PaB670093 scFv (scFv, V domains shown, purified scFv; also called ZZ1ODR-H04) VH: EVQLLESGGGLVQPGGSLRLSCAASGFTFSSYAMNWVRQAPGKGLEWVSTISYHHHLISHADSVKGRFTISRDNSKNTLYLQMNSLRAEDTAVYYCARINNDPMDVWGQGTLVTVSS VL: SIELTQPPSVSVSPGQTASITCSGDNLGKKYVQWYQQKPGQSPVLVIYDDSNRPSGIPERFSGSNSGNTATLTISGTQAMDEADYYCQTWDGNPTTGETNVFGGGTKLTVL	3.2 fold	5.6 fold	58.7 nM	18.6 nM
PaB670094 scFv (scFv, V domains shown, purified scFv; also called ZZ1ODS-B08) VH: EVQLLESGGGLVQPGGSLRLSCAASGFTFSSYAMNWVRQAPGKGLEWVSTISYHGHHISHADHHKGRFTISRDNSKNTLYLQMNSLRAEDTAVYYCARINNDPMDVWGQGTLVTVSS VL: SIELTQPPSVSVSPGQTASITCSGDNLGKKYVQWYQQKPGQSPVLVIYDDSNRPSGIPERFSGSNSGNTATLTISGTQAMDEADYYCQTWDGNPTTGETNVFGGGTKLTVL	3.3 fold	22 fold	237 nM	72.5 nM
PaB670095 scFv (scFv, V domains shown, purified scFv; also called ZZ1ODS-H05) VH: EVQLLESGGGLVQPGGSLRLSCAASGFTFSSYAMNWVRQAPGKGLEWVSTISYHGHHISYADSHHHRFTISRDNSKNTLYLQMNSLRAEDTAVYYCARINNDPMDVWGQGTLVTVSS VL: SIELTQPPSVSVSPGQTASITCSGDNLGKKYVQWYQQKPGQSPVLVIYDDSNRPSGIPERFSGSNSGNTATLTISGTQAMDEADYYCQTWDGNPTTGETNVFGGGTKLTVL	5.7 fold	6.1 fold	113 nM	20 nM
PaB670097 scFv (scFv, V domains shown, purified scFv; also called ZZ1ODT-E11) VH: EVQLLESGGGLVQPGGSLRLSCAASGFTFSSYAMNWVRQAPGKGLEWVSTIHHSGHLHSYHHHVKGRFTISRDNSKNTLYLQMNSLRAEDTAVYYCARINNDPMDVWGQGTLVTVSS VL: SIELTQPPSVSVSPGQTASITCSGDNLGKKYVQWYQQKPGQSPVLVIYDDSNRPSGIPERFSGSNSGNTATLTISGTQAMDEADYYCQTWDGNPTTGETNVFGGGTKLTVL	3.6 fold	6.6 fold	77.9 nM	21.8 nM
PaB670098 scFv (scFv, V domains shown, purified scFv; also called ZZ1ODT-G01) VH: EVQLLESGGGLVQPGGSLRLSCAASGFTFSSYAMNWVRQAPGKGLEWVSTISHSGHLHHYADSHKHRFTISRDNSKNTLYLQMNSLRAEDTAVYYCARINNDPMDVWGQGTLVTVSS VL: SIELTQPPSVSVSPGQTASITCSGDNLGKKYVQWYQQKPGQSPVLVIYDDSNRPSGIPERFSGSNSGNTATLTISGTQAMDEADYYCQTWDGNPTTGETNVFGGGTKLTVL	3.2 fold	20 fold	210 nM	65.9 nM
